Data reported in article PMC5498496.

What was measured:
[1] = eptifibatide-induced mAb binding, flow cytometry; conditions: glycan lost; control: wild-type β3 with αIIb
[2] = surface expression by mAbs 10E5, AP2, AP3, flow cytometry; conditions: glycan lost; control: wild-type αIIbβ3

B1: integrin β3 subunit: β3-N559Q (protein)
parent chain: MRARPRPRPLWATVLALGALAGVGVGGPNICTTRGVSSCQQCLAVSPMCAWCSDEALPLGSPRCDLKENLLKDNCAPESIEFPVSEARVLEDRPLSDKGSGDSSQVTQVSPQRIALRLRPDDSKNFSIQVRQVEDYPVDIYYLMDLSYSMKDDLWSIQNLGTKLATQMRKLTSNLRIGFGAFVDKPVSPYMYISPPEALENPCYDMKTTCLPMFGYKHVLTLTDQVTRFNEEVKKQSVSRNRDAPEGGFDAIMQATVCDEKIGWRNDASHLLVFTTDAKTHIALDGRLAGIVQPNDGQCHVGSDNHYSASTTMDYPSLGLMTEKLSQKNINLIFAVTENVVNLYQNYSELIPGTTVGVLSMDSSNVLQLIVDAYGKIRSKVELEVRDLPEELSLSFNATCLNNEVIPGLKSCMGLKIGDTVSFSIEAKVRGCPQEKEKSFTIKPVGFKDSLIVQVTFDCDCACQAQAEPNSHRCNNGNGTFECGVCRCGPGWLGSQCECSEEDYRPSQQDECSPREGQPVCSQRGECLCGQCVCHSSDFGKITGKYCECDDFSCVRYKGEMCSGHGQCSCGDCLCDSDWTGYYCNCTTRTDTCMSSNGLLCSGRGKCECGSCVCIQPGSYGDTCEKCPTCPDACTFKKECVECKKFDRGALHDENTCNRYCRDEIESVKELKDTGKDAVNCTYKNEDDCVVRFQYYEDSSGKSILYVVEEPECPKGPDILVVLLSVMGAILLIGLAALLIWKLLITIHDRKEFAKFEEERARAKWDTANNPLYKEATSTFTNITYRGT
structure_or_conformation [1]: decreases | expression_or_secretion [2]: no change
